Reference: patent US20140056903A1 (Regeneron, published 2014)

T1: cynomolgus GFRα3 on HEK293/MfGFRα3/MfRet/SRE-Luc cells (cynomolgus, UniProt O60609 1-400 (human entry), limits assumed)
T1 chain: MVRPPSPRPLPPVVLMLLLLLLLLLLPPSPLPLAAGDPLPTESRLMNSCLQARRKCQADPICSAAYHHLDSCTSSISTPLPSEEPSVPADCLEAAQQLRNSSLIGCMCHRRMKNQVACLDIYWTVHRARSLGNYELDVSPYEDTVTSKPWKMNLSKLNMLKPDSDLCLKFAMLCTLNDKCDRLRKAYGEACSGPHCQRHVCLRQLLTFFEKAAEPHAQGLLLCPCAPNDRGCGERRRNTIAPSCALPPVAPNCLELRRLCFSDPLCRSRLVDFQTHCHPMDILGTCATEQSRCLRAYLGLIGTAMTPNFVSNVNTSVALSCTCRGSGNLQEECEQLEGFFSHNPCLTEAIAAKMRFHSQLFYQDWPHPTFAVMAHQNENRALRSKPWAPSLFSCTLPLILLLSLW

T2: human GFRα2 expressed with a C-terminal human Fc tag and a hexahistidine tag (human, UniProt O00451 22-441, limits assumed)
T2 construct: bought protein; also called hGFRα2-hFc-6His; hGFRα2-hFc-6his
T2 sequence (looked up): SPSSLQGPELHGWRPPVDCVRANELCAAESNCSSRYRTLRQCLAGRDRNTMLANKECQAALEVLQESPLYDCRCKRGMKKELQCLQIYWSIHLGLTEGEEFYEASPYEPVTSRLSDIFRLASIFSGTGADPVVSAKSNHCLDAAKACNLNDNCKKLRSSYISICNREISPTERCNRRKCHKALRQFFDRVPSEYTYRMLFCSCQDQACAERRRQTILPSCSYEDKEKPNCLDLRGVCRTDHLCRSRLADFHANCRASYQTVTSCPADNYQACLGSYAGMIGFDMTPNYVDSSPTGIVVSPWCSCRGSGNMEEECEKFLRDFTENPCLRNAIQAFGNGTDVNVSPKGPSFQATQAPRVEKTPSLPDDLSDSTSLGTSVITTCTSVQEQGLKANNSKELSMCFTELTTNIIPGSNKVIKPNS

T3: human GFRα1 expressed with a C-terminal human Fc tag and a hexahistidine tag (human, UniProt P56159 25-429, limits assumed)
T3 construct: bought protein; also called hGFRα1-hFc-6His; hGFRα1-hFc-6his
T3 sequence (looked up): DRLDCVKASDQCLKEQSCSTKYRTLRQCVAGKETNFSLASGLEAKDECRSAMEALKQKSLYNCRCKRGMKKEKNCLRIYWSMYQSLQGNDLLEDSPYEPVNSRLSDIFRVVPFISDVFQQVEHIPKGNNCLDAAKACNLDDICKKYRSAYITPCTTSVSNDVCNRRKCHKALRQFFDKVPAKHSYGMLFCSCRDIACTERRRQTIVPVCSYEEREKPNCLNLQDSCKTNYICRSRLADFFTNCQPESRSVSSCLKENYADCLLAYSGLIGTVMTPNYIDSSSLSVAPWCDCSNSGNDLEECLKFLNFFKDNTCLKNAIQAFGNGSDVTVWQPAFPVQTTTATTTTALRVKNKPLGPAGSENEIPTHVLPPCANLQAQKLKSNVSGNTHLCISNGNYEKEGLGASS


Tests used:
[1] = biological target: T1, cynomolgus GFRα3 on …; test: cell-based or functional assay
[2] = biological target: T4, human GFRα1 expressed with only a C-terminal human Fc tag (human); test: BLI Octet, antigen captured on anti-hFc tips
T4 construct: also called hGFRα1-hFc
Experimental: (§1) The ability of anti-GFRα3 antibodies to bind to GDNF-family receptors was assessed using an Octet Red biosensor (Fortebio, Inc.). Antibodies were tested for binding to either human GFRα1 expressed with a C-terminal human Fc tag and a hexahistidine tag (hGFRα1-hFc-6His, R&D Systems #714-GR), human GFRα1 expressed with only a C-terminal human Fc tag (hGFRα1-hFc; SEQ ID: 376), human GFRα2 expressed with a C-terminal human Fc tag and a hexahistidine tag (hGFRα2-hFc-6His, R&D Systems #613-FR), human GFRα3 expressed with a C-terminal human Fc tag (hGFRα3-hFc, SEQ ID:371), or an irrelevant human Fc tagged protein. Antigens were captured onto anti-human Fc sensor tips from 10 ug/mL solutions for 5 minutes. The coated sensor tips were then blocked with a 100 ug/mL solution of irrelevant human Fc antibodies for 5 minutes. Blocked sensor tips were then submerged into wells containing […] of each anti-GFRα3 antibody or buffer alone for 10 minutes. The experiment was performed at 25° C. with a flow rate of 1000 rpm using HBST+BSA buffer (10 mM HEPES, 150 mM NaCl, 3 mM EDTA, 0.05% w/v Surfactant P20, 0.1 mg/mL BSA, pH 7.4). The binding response (measured in units of nm) at each step of the experiment was monitored and recorded.

[3] = biological target: T2, human GFRα2 expressed with a C-terminal …; test: BLI Octet, antigen captured on anti-hFc tips
Experimental: as §1

[4] = biological target: T3, human GFRα1 expressed with a C-terminal …; test: BLI Octet, antigen on anti-hFc tips, 100 ug/mL Ab
Experimental: as §1

[5] = biological target: T5, irrelevant human Fc tagged protein; test: BLI Octet, antigen on anti-hFc tips, 100 ug/mL Ab
T5 construct: negative control antigen; also called Irrelevant hFc tagged protein
Experimental: as §1

[6] = biological target: T4, human GFRα1 expressed with only a …; test: BLI Octet, antigen on anti-hFc tips, 100 ug/mL Ab
Experimental: as §1

[7] = biological target: T6, human GFRα3 expressed with a C-terminal hFc tag (human); test: BLI Octet, antigen on anti-hFc tips, 100 ug/mL Ab
T6 construct: also called hGFRα3-hFc
T6 sequence (chain, as listed by the source limits assumed): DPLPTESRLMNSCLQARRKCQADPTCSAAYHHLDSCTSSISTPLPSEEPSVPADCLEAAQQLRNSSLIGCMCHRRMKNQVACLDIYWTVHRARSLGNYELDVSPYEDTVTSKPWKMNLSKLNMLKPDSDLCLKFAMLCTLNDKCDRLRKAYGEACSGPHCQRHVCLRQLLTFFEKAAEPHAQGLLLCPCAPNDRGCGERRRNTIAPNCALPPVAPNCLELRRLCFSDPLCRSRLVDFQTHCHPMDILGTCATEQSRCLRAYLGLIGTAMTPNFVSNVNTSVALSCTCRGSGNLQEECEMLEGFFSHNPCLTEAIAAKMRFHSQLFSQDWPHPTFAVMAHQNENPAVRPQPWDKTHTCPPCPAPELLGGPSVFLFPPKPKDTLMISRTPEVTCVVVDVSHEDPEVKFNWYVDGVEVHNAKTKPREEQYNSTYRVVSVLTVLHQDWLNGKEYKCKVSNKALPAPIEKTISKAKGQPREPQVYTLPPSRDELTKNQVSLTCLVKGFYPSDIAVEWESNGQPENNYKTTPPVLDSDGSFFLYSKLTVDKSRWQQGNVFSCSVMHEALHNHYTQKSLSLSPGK
Experimental: as §1

[8] = biological target: T6, human GFRα3 expressed with a C-terminal …; test: blocking ELISA 1, hGFRα3-hFc to coated hARTEMIN-mmH
Experimental: A constant amount of human GFRα3 fused with a C-terminal human Fc tag (hGFRα3-hFc; SEQ ID:371) at 120 pM was pre-mixed with varying amounts of antibodies, ranging from 0 to ˜10 nM in serial dilutions, followed by an 1 hour incubation at room temperature (RT) to allow antibody-hGFRα3-hFc binding to reach equilibrium. The equilibrated sample solutions were then transferred to the hARTEMIN-mmH-coated plate. […] Absorbance was recorded at 450 nm on a Victor X5 plate reader (Perkin Elmer) to determine the amount of free hGFRα3-hFc in the pre-equilibrated hGFRα3-hFc-antibody solutions that was able to bind to the plate coated with hARTEMIN-mmH. IC₅₀ values, defined as the concentration of antibody required to reduce the signal from a constant concentration of hGFRα3-hFc by 50%, were calculated from the data using Prism software from GraphPad. The absorbance measured at the constant amount of 120 pM hGFRα3-hFc in the absence of anti-GFRα3 antibody is defined as 0% blocking and the absorbance with no added hGFRα3-hFc is defined as 100% blocking. The observed absorbance in the wells containing the highest antibody concentration was used to calculate the maximum blocking percent shown in the table.

| Binder | IC50 (SRE-luc, HEK293/MfGFRα3/MfRET cells, 500 pM human ARTEMIN-MMH) [1] [nM] | binding result [2] | binding result [3] | Bound (nm) [4] [nm] | Bound (nm) [5] [nm] | Bound (nm) [6] [nm] | Bound (nm) [7] [nm] | % max blocking [8] [%] | IC50 [8] [pM] |
| --- | --- | --- | --- | --- | --- | --- | --- | --- | --- |
| H4H2243N2 (antibody, human IgG4, V domains shown, human IgG4 Fc (H4H)) VH: QVQLVQSGAEVKKPGASVKVSCKASGYTFTSYGIIWVRQAPGQGLEWMGWISGYNGNTNYAQNLQGRVTMTTDTSTTTAYMELRSLRSDDTAVYYCARWGIATRPYYYYGMDVWGQGTTVTVSS VL: DIQMTQSPSSLSASVGDRVTITCRASQDITNYLAWFQQKPGKAPKSLIYAASSLQSGVPSKFSGSGSGTDFTLTISSLQPEDFATYYCQQYNSYPPTFGPGTKVDIK | 0.8 | no binding (tested: 100 ug/mL) | no binding (tested: 100 ug/mL) | 0.03 | 0.03 | 0.03 | 1.11 | – | – |
| H4H2294S (antibody, human IgG4, V domains shown, human IgG4 Fc (H4H)) VH: EVQLVESGGGLVQPGGSLRLSCAASGFTFSSYAMSWVRQAPGKGLEWVSVISGSGGSTYYADAVKGRFTISRDNSKHTLYLQMNSLRAEDTAVYYCTKPSSYSSSNFYYGMDVWGQGSTVTVSS VL: DIQLTQSPSSVSASVGDRVTITCRASQGISSWLAWYQQKPGKAPKLLIYAASSLQSGVPSRFSGSGSGTDFTLTISSLQPEDFATYYCQQTNSFPFPFGPGTKVDIK | 0.7 | no binding (tested: 100 ug/mL) | no binding (tested: 100 ug/mL) | 0.03 | 0.03 | 0.04 | 1.17 | – | – |
| H4H2342P (antibody, human IgG4, V domains shown, human IgG4 Fc (H4H)) VH: EVQLLESGGGLVQPGGSLRLSCAASGFTFSTYAMSWVRQAPGKGLEWVSAIRGNGVNTYYGDSMKGRFTISRDNSKDTLYLQMNSLRAEDTAVYYCAKNKWELLVFEYWGQGTLVTVSS VL: DIQMTQSPSSLSASVGDRVTITCRASQDISNYLAWYQQKPGKVPKLLIYAASTLQSGVPFRFSGSGSGTDFTLTISSLQPEDVATYYCQKYNSAPPFGPGTKVDIK | 2.5 | no binding (tested: 100 ug/mL) | no binding (tested: 100 ug/mL) | 0.08 | 0.07 | 0.06 | 1.59 | – | – |
| H4H2344S (antibody, human IgG4, V domains shown, human IgG4 Fc (H4H)) VH: EVQLVESGGGVVQPGRSLRLSCAASGFSFSDYVMHWVRQAPGKGLEWVASIWFDGSNEFYADSVKGRFTISRDNSKNTLFLQMNSLRAEDTAVYYCAKKGVLVATSAFDIWGQGTMVTVSS VL: DIQMTQSPSSLSASVGDRVTITCRASQSINNYLNWYHQKPGKAPKLLIYAASSLQSGVPSRFSGSGSGTDYTLTISSLQPEDFGNYYCQQSYRTSMYTFGQGTKVEIK | – | – | – | – | – | – | – | 94 | 133 |
| H4H2293P (antibody, human IgG4, V domains shown, human IgG4 Fc (H4H)) VH: QVQLVESGGGVVQPGRSLRLSCAASGFSFSDYVMHWVRQAPGKGLEWVASIWFDGSNELYADSVKGRFTISRDNSKNTLFLQMNSLRAEDTAVYYCAKKGVLVATSAFHIWGQGTMVTVSS VL: AIQMTQSPSSLSASVGDRVTITCRASQNINNYLNWYHQKPGKAPNLLIYAASSLQSGVPSRFSGSGSGTDYTLTISSLQPEDFGNYYCQQSYSTSMYTFGQGTKLEIK | – | – | – | – | – | – | – | 93 | 260 |
| H4H2346S (antibody, human IgG4, V domains shown, human IgG4 Fc (H4H)) VH: QVQLVESGGGVVQPGRSLRLSCAASGFSFSDYVMHWVRQAPGKGLEWVASIWFDGSNEFYADSVKGRFTISRDNSKNTLFLQMNSLRAEDTAVYYCAKKGVLVATSAFDIWGQGTMVTVSS VL: EIVMTQSPSSLSASVGDRVTITCRASQSINNYLNWYHQKPGKAPKLLIYAASSLQSGVPSRFSGSGSGTDYTLTISSLQPEDFGNYYCQQSYRTSMYTFGQGTKVEIK | – | – | – | – | – | – | – | 92 | 97.8 |
| H4H2354S (antibody, human IgG4, V domains shown, human IgG4 Fc (H4H); also called H4H2354S-1) VH: QVQLVESGGGVVQPGRSLRLSCAASGFSFSDYVMHWVRQAPGKGLEWVASIWFDGSNEFYADSVKGRFTISRDNSKNTLFLQMNSLRAEDTAVYYCAKKGVLVATSAFDIWGQGTMVTVSS VL: DIQLTQSPSSLSASVGDRVTITCRASQSINNYLNWYHQKPGKAPKLLIYAASSLQSGVPSRFSGSGSGTDYTLTISSLQPEDFGNYYCQQSYRTSMYTFGQGTKVEIK | – | – | – | – | – | – | – | 92 | 116 |
| H4H2350P (antibody, human IgG4, V domains shown, human IgG4 Fc (H4H)) VH: QVQLQESGPGLVKPSETLSLTCTVSGGSISTYYWSWFRQPPGKGLEWIGYIYYSGSTNHNPSLKSRVTISVDTSKNQFSLKLRSVTAADTAVYYCARVGPVGWGSWGNFDYWGQGTLVTVSS VL: DIQLTQSPSFLSASVGDRVTITCWASQGISSYLAWSQQKPGKAPKLLIYAASTLQSGVPSRFSGSGSGTEFTLTISSLQPEDFATYYCQQLNSYPWTFGQGTKVEIK | – | – | – | – | – | – | – | 93 | 496 |
| H4H2212N (antibody, human IgG4, V domains shown, human IgG4 Fc (H4H)) VH: EVQLLESGGGLVQPGGSLRLSCAASGFTFSSYAMSWVRQGPGKGLEWVSGISGSGGSTYNADSVKGRFTISRDNSKNTLYLQMNSLRAEDTAVYYCAKDSGTYWYYFDYWGQGILVTVSS VL: not shown | 1.8 | no binding (tested: 100 ug/mL) | no binding (tested: 100 ug/mL) | -0.01 | 0 | 0 | 1.18 | 81 | 43.8 |
